Results from the DeepSol protein solubility set.

Assay: soluble on expression in E. coli; label from the status in PepcDB or PDB records

Sequence | soluble on expression in E. coli
MAAKNAFYAQSGGVTAVINASAAGVIEAARKQSGKIGRIYAGRNGIIGALTEDLIDTGQESDAAISALRYTPSGAFGSCRYKLKSLEQNRREYERLIEVFKAHDIGYFFYNGGGDSADTCLKVSQLSGTLGYPIQAIHVPKTVDNDLPITDCCPGFGSVAKYIAVSTLEASFDVASMSATSTKVFVLEVMGRHAGWIAAAGGLASSPEREIPVVILFPEISFDKQKFLAKVDSCVKKFGYCSVVVSEGVKGDDGKFLSDQGVRDAFGHAQLGGVAPVVASMVKEGLGLKYHWGVADYLQRAARHIASKTDVEQAYAMGQAAVEFAVQGHNSVMPTIERISARPYQWKVGMAQLSQVANVEKMMPENFITEDGFGITDLCREYLAPLIEGEDYPPYKDGLPDYVRLKNVAVPKKLSGFTL | soluble
MSEAIIAKKAEQVELIAEKMKAAASIVIVDSRGLTVDQDTVLRRSLRESGVEFKVIKNSILTRAAEKAGLDELKDVFVGPSAVAFSNEDVIAPAKVINDFTKTADALEIKGGAIEGAVSSKEEIQALATLPNREGMLSMLLSVLQAPVRNVAYAVKAVAENKEGAA | not soluble
MQSVTPTSQYLKALNEGSHQPDDVQKEAVSRLEIIYQELINSRPPAPRTSGLMARVGKLWGKREDTKHTPVRGLYMWGGVGRGKTWLMDLFYQSLPGERKQRLHFHRFMLRVHEELTALQGQTDPLEIIADRFKAETDVLCFDEFFVSDITDAMLLGGLMKALFTRGITLVATSNIPPDELYRNGLQRARFLPAIDAIKQHCDVMNVDAGVDYRLRTLTQAHLWLSPLNDETRAQMDKLWLALAGVKRENSPTLEINHRPLATMGVENQTLAVSFTTLCVDARSQHDYIALSRLFHTVMLFDVPVMTRLMESEARRFIALVDEFYERHVKLVVSAEVPLYEIYQGERLKFEFQRCLSRLQEMQSEEYLKLEHHHHHH | not soluble
MSLTNNVIHLIPEIERILRIKYDDKQKELFYKINENNILVLTGFAGTGKSSVLNGLLNLFDKKNITYKLMSPTAKAAKRMEECTGKKASTIHRALGLAEGKFLVNEKNPFAEDVIIIDETSMVDIYLFLAVLKGIKNTTKLLCLGDYGQLESISAGNVLFDMIQGGIPCVKLEKIFRQKEDSSLLNVITNIRNGDNPLKNTHKTYLELGRDCKFWLGKKEQTLSRVLLCYKECLKHFSREDIMVLCPMKKGNSGVNKLNQELQKIANSQNTEELKLKDCAYKKEDLVMHIKNDYNANIFSEDCKDTIAKGIFNGDAGKIEKIDLENQKLYVSYDSGIVEYDNSNLNELMLSYALTIHKVQGSQSKVVIVALDMSHYKMLKRSLLYTAASRCVELLIFICDPKAFSIALNNNQVTHKNTFLGELLKISEGHHHHHH | not soluble
MSVVEEATDDALYPIAVLIDELRNEDVTLRLNSIRKLSTIALALGVERTRNELIQFLTDTIYDEDEVLLVLAEQLGNFTPLVGGPDHVHCLLLPLENLATVEETVVRDKAVESLRKIADKHSSASLEEHFVPMLRRLATGDWFTSRTSACGLFSVVYPRVSPAIKSELKSMFRTLCRDDTPMVRRAAAAKLGEFAKVFEKTAVIEGLHSSLTDLHVDEQDSVRLLTVESAIAFGTLLDKANKKKLIEPILIELFDDKSWRVRYMVAEKLIEIQNVLGEDMDTTHLVNMYTNLLKDPEGEVRCAATQRLQEFALNLPEDKRQNIICNSLLNVAKELVTDGNQLVKSELAGVIMGLAPLIGKEQTVSELLPIYMQLLNDQTPEVRLNIISSLDKVNEVIGAAQLSTSLLPAIVGLAEDGKWRVRLAIVQFMPLLASQLGQEFFDEKLLPLCLNWLTDHVFSIREASTLIMKELTQKFGGQWASTNIVPKMQKLQKDTNYLQRMTCLFCLNTLSEAMTQEQILKEIMPIVKDLVEDDVPNVRFNAAKSLKRIGKNLTPSTLTSEVKPLLEKLGKDSDFDVRYFSEEAKNSLGL | not soluble
MPYIEKLELKGFKSYGNKKVVIPFSKGFTAIVGANGSGKSNIGDAILFVLGGLSAKAMRASRISDLIFAGSKNEPPAKYAEVAIYFNNEDRGFPIDEDEVVIRRRVYPDGRSSYWLNGRRATRSEILDILTAAMISPDGYNIVLQGDITKFIKMSPLERRLLIDDISGIAEYDSKKEKALEE | soluble
MIKVKEDKNEQVKKRWGDKPYYSLNYFLREKFQDKVFKISLDAGFSCPNRDGTISRGGCMFCSERGSGDFAGNRKFSISTQFEDIKDMMKNKWKNGKYIAYFQAYTNTYAPIKVLREKYSEAISKDGVVGLAIATRPDCLSEEVLDLIQEFSKRIYVWVELGLQTANDKVAKVINRGYDTIVFDDAVKKLRERKIDVVVHTIFGLPGEKPKDMLSTIDYVAHKEVQGIKIHLLHLMRGTPLVELYNNGQLTFMSEEEYVETVCRAITMLPQNIV | not soluble
GHMKCPVCHQGEMVSGIKDIPYTFRGRKTVLKGIHGLYCVHCEESIMNKEESDAFMAQVKAFRASVNAETVAPEFIVKVRKKLSLTQKEASEIFGGGVNAFSRYEKGNAQPHPSTIKLLRVLDKHPELLNEIR | soluble
MGSDKIHHHHHHMQSTASHTKAPGKSHPVVTEDQYFSVSPLMLLADNAALFSVYLRQGNNFVLYTHAGEMFTHRHKQRLAENGVTEVWLKESQRHAYTAHVEQHLGNVLADDSLPAEARAGALYGIASDALQDVFAQHGAGALPADTARRARQLVEHIISFLKVPNGITALGRFIAHDYHSWTHSLNTTFYTLGILQSYGLPDESMAHIGLGAMLHDIGKAEIPSSILLKPGPLTASERQCINTHPLMGVARLAQTELPQTTLNCILFHHEKLDGSGYPSGIGGTAIPLAVRAVTVADIYDALASERPYAAARPPFAVLQLMRGEMADELDMDVFKNFVLMLSNAGLTKT | not soluble
MERSLYSPDLRIPPANIHNNHLKIDTDRKIRFAITHPEIKKAKGTIVILESYANALEEYFLPMNEISNRGFYTAIFDWFGREESQPDKQKQSRYNYFNINNDINDLNEFLKNIVYCNCPPPYYMLTYGMGGLIALSGLDLINHKFNKMLCISPLFAPFGNKTNSFQHKLTQLLSDIGLGFLPAKGGEKLKQKSTQFMRINEAALSSDFLIKRPTSRWMASVLNAIDSVKKNILNGHLEIPTLFILANQNNIANNIEIRQLCQYTHLTDSITITGAELDTIMHEESYQKQFWIAFDAFIRG | not soluble
MSSQSIDDKFMSITQMKNLIHYVKKNDALSHLCIYILIITGSRFKPVQHLRYEDLNFKKSCIHLNDTKNKYSKRNVKVRIKDLEYIQSVINKHPINQNGYIFHNFINFISYSAINDVLVRFCLKYKYDKYTLKSLRHTHCSYLLAKGISIQYISKRLGHADIHTTLKIYSHLIKEFEDSENSLIEKNLNDLFSDLEHHHHHH | not soluble
MSLEVRWNEYLSRNGSLFSSDELSGASPPSVFVGSYGYPRVGVGPMVPPVHGDTSLMDAPERWAGRPLDEIVNYRLSLVRGIRKTRVTGTSGRYIEGLQEAAMSRRPVDSDIRFEKPVSPAALADGCCAPFGPVGEIRRASFGGSSADGAIERAYYDRDLGAADAAVALYDGGTEISRIQGCLSVGMLGRRRKLVPTRWSITAVDDMVSKRLVGRIKDAPVSDAHQVFHYVHMGNLFSVVLFPHRWLFEMMEAYYSGGVLGFGADHEDARGLDHAPATAGAHFASRLAVAEHLCGRGVQAGALVLREIRAEYSVPVGVWQVREGLRAAMAQKPFVAGSLDEAIDEACRPMSISRNEWLSHGSIMRLVRQRTLSEFFEGHHHHHH | not soluble
MQGLELPQSYFNAAAKRQKYAMKPGLSALEKNAVIKAAYRQIFERDITKAYSQSISYLESQVRNGDISMKEFVRRLAKSPLYRKQFFEPFINSRALELAFRHILGRGPSSREEVQKYFSIVSSGGLPALVDALVDSQEYADYFGEETVPYLRGLEHHHHHH | not soluble
MGSDKIHHHHHHMPGTAARPAPIRVTYAEVMQRIIGTEVEYGISSPSDPTANPILTSTQAVLAYAAAAGIQRAKRTRWDYEVESPLRDARGFDLSRASGPPPVVDADEVGAANMILTNGARLYVDHAHPEYSAPECTDPLDAVIWDKAGERVMEAAARHVASVPGAAKLQLYKNNVDGKGASYGSHENYLMSRQTPFSAVIAGLTPFLVSRQVVTGSGRVGIGPSGDEPGFQLSQRADYIEVEVGLETTLKRGIINTRDEPHADADKYRRLHVIIGDANLAETSTYLKLGATSLVLDLIEEGMDLSDLALARPVHAVHVISRDPSLRATVAMADGRELTALALQRIYLDRVAKLVDSRDPDPRAAHVVETWAEVLDLLERDPMECAEILDWPAKLRLLEGFRHRENLGWSAPRLHLVDLQYSDVRLDKGLYNRLVARGSMKRLVTEQQVLDAVDSPPTDTRAYFRGECLRRFGADIAAASWDSVIFDLGGDSLVRIPTLEPLRGSKAHVGALLDSVDSAVQLVEQLTAT | not soluble
VTTSSDPSSPVPQEDLDAVAAQLGREPRGVLEIAYRSPDGTPGVVKTAPKLPDGTPFPTLYYLTDPRLTAEASRQESAGVMREMTERLGQDPELAAAYLRAHESYLAERDAIEPLGTDFTGGGMPERVKCLHVLMAHSLAKGPGVNPLGDESVALAASAAGGKLRGTAIPADWPGIDDVESPEQ | not soluble
MGSDKIHHHHHHVEDLKNLTNQAVEKQPEIVKRFNEMIDSQHLSHAYLLTGAGGIGKKDVAQWVAMRLFCIDLQGSMPCGECEECTRIMSGQHPDVVEIAPDGQSIKVEQVRFLKSEFSKSGVEGARKVFIIEQANKMTTSAANSLLKFIEEPSGEVTAFLLAENRSLMLPTIVSRTEIIELKPLPKDRLIKELTEQNIAETDARILTRLTNDMSEIQTLVDNNWILDAHKALEKWFITATTGDITAFVDVQTRVMALAKDRFYQEKILDLMMLYAMDLLELKFDQETITYEANRRQLQELADQTNVRQLLAVADVLLPLKHQLSQNLNFQSVVEKATIKICNIFKMRGR | not soluble
MQNHVISLASAAERRAHIAATFGSRGIPFQFFDALMPSERLEQAMAELVPGLSAHPYLSGVEKACFMSHAVLWKQALDEGLPYIAVFEDDVLLGKDAEKFLAEDTWLEERFDKDSAFIVRLETMFAKVIVRPDKVLNYENRSFPLLESEHCGTAGYIISREAMRFFLDRFAVLPPERIKAVDLMMFTYFFDKEGMPVYQVSPALCTQELHYAKFLSQNSMLGSDLEKDREQGRRHRRSLKVMFDLKRALGKFGREKKKRMERQRQAELEKVYGRRVILFKLEHHHHHH | soluble
GMSESPTAGRASLAPLREFITGLSALLDEQPGEARILREGGALLARLVARDDWLPDAFAQPHPEYYQQMLLHCDSAERFSIVSFVWGPGQRTPIHDHTVWGLIGMLRGAEYSQPFVLDGSGRPVLHGEPTRLEPGHVEAVSPTVGDIHRVHNAYDDRVSISIHVYGANIGGVRRSVYTEAGERKPFISGYSNPYLPNPWDRSKDSAAS | soluble
MGSDKIHHHHHHMNNLYHLKVRCSSLHKIIGEPKSKADKEAGKLTDTAKSAVREMAKFDLFGYNAFEGNKYTQKGNELEEQAIKLSGVTRGLALKKNTERRENEFITGECDIYVPSRKLIIDTKCSWDIGSHPFFTDEAQEKAKKAGYDIQMQGYMWLWDCDQAQIDFVLFPTPLNLISAYDSDFKLIDLVEQIPQIRRITTVIIQRDNELIDKIKERVSAAQKYYDQLISEMS | not soluble
MIKQNSFVPYPEAMLPKGFKYPQSYLKLAQSTHAINYDEQYSFPWWFENAESNISEVIDIYFEITGIPNLLPFARNQEWAACFDISDKSGNPKIIVVNLDNTKYYETFENFDTWLKEAENDGW | soluble
